Assay results: patent US20220195383A1, “METHOD FOR PRODUCING PLURIPOTENT STEM CELLS” (KANEKA CORPORATION, priority 2019, published 2022)

How the values were obtained:
[1] = tested on: human iPS cell line 201B7; assay: Adhesion culture with addition of WNT3A protein into medium, quantitative real-time PCR; format: cell-based; settings: Line 201B7, day 5
Method: (§1) These cells were lysed using TRIzol™ Reagent (Thermo Fisher Scientific K.K.). Total RNA was isolated and purified from a cell solution obtained by lysing with TRIzol™ Reagent using a PureLink (registered trademark) RNA Mini kit (Thermo Fisher Scientific K.K.). A concentration of the purified RNA was measured using BioSpec-nano (Shimadzu Corporation), and 40 ng was separated. 2 μL of ReverTra Ace (registered trademark) qPCR RT Master Mix (TOYOBO CO., LTD.) and RNase Free dH2O were added to the separated RNA to prepare 10 μL. cDNA synthesis was performed using SimpliAmp Thermal Cycler (Thermo Fisher Scientific K.K.). […] A synthesized cDNA solution was diluted 100-fold with 10 mM Tris-HCl pH 8.0 (NACALAI TESQUE, INC.) and added to a 384-well PCR plate (Thermo Fisher Scientific K.K.) at 5 μL/well. KOD SYBR® qPCR Mix (TOYOBO CO., LTD.), a Forward primer prepared to 50 μM, a Reverse primer prepared to 50 μM, and DEPC-treated water (NACALAI TESQUE, INC.) were mixed at a ratio of 100:1:1:48. This mixed solution was added to the above-mentioned 384-well PCR plate at 15 μL/well and mixed. For the primers, bACT, OCT4, SOX2, Nanog, Brachyury, and SOX17 were used. The 384-well PCR plate was subjected to centrifugal separation to remove air bubbles in the wells, and quantitative real-time PCR analysis was performed using QuantStudio 7 Flex Real-Time PCR System (Thermo Fisher Scientific K.K.).
(§2) The human iPS cell lines 201B7 and RPChiPS771-2 maintenance-cultured in the procedure of Step 1 of Reference Example 3 were treated with Accutase for 3 to 5 minutes to release the cells from the dish. The cells were dispersed into single cells by pipetting. These cells were suspended in a StemFit (registered trademark) AK02N medium containing Y-27632 at a final concentration of 10 μM. A part of the cells was stained with trypan blue to measure the number of living cells. A cell suspension was prepared so that it contained 4.6×10^4 cells per mL using the StemFit (registered trademark) AK02N medium containing Y-27632 a final concentration of 10 μM. 2 mL of the cell suspension per well was seeded in a 6-well plate for cell culture (Sumitomo Bakelite Co., Ltd.) coated with 0.5 μg of Vitronectin per 1 cm^2. WNT3A protein (R&D Systems, Inc.) was added to each of the wells so that final concentrations were 10 pg/mL, 100 pg/mL, 1 ng/mL, 10 ng/mL, and 100 ng/mL, and adhesion culture was performed at 37° C. in a 5% CO2 environment. The day when the cells were seeded was defined as day 0 of the culture. The adhesion culture was performed until day 5 of the culture. Medium exchange was performed every day. […] Phase-contrast images of the cells were acquired using a phase-contrast microscope on day 5 of the culture. FIG. 8 and FIG. 9 show the acquired phase-contrast images. Furthermore, on day 5 of the culture, the culture supernatant was recovered from the wells. 0.5 mL of Accutase was added per well to treat the cells for 3 to 5 minutes. The cells were released from the wells, and were dispersed into single cells by pipetting. These cells were suspended in a StemFit (registered trademark) AK02N medium containing Y-27632 at a final concentration of 10 μM. A part of the cells was stained with trypan blue to measure the number of living cells.
(§3) The phase-contrast images on day 5 of the culture were analyzed with image analysis software (for example, ImageJ), and a proportion of a surface area of cells with respect to a culture area was calculated. From this value and the culture area (9.2 cm^2/well), an area in which the cell surface was in contact with the medium was calculated. Furthermore, a surface area (cm^2) in contact with the medium per cell was calculated from an area in which the cell surface was in contact with the medium and from the number of living cells on day 5 of the culture. […]

[2] = tested on: human iPS cell line RPChiPS771-2; assay: as above; format: cell-based
Method: as §1, §2, §3

[3] = WNT3A protein in medium 10 pg/mL
[4] = WNT3A protein in medium 100 pg/mL
[5] = WNT3A protein in medium 1 ng/mL
[6] = WNT3A protein in medium 10 ng/mL
[7] = WNT3A protein in medium 100 ng/mL
[8] = WNT3A protein in medium 10 pg/mL, adhesion culture, Line RPChiPS771-2, day 5
[9] = WNT3A protein in medium 100 pg/mL, adhesion culture, Line RPChiPS771-2, day 5
[10] = WNT3A protein in medium 1 ng/mL, adhesion culture, Line RPChiPS771-2, day 5
[11] = WNT3A protein in medium 10 ng/mL, adhesion culture, Line RPChiPS771-2, day 5
[12] = WNT3A protein in medium 100 ng/mL, adhesion culture, Line RPChiPS771-2, day 5
[13] = adhesion culture with added WNT3A, lines 201B7 and RPChiPS771-2, day 5

B1: WNT3A protein: WNT3A protein (R&D Systems, Inc.) added to the adhesion culture medium at 10 pg/mL to 100 ng/mL (protein, UniProt P56704 19-352, looked up)
Protein Wnt-3a: SYPIWWSLAVGPQYSSLGSQPILCASIPGLVPKQLRFCRNYVEIMPSVAEGIKIGIQECQHQFRGRRWNCTTVHDSLAIFGPVLDKATRESAFVHAIASAGVAFAVTRSCAEGTAAICGCSSRHQGSPGKGWKWGGCSEDIEFGGMVSREFADARENRPDARSAMNRHNNEAGRQAIASHMHLKCKCHGLSGSCEVKTCWWSQPDFRAIGDFLKDKYDSASEMVVEKHRESRGWVETLRPRYTYFKVPTERDLVYYEASPNFCEPNPETGSFGTRDRTCNVSSHGIDGCDLLCCGRGHNARAERRREKCRCVFHWCCYVSCQECTRVYDVHTCK
B1 was tested, and the “Relative gene expression level with respect to ACTB in 2^−Λ Ct, Nanog” value (from here on “Relative gene expression level … Nanog”) [1, 3] was 2.59 × 10^−2, the “Relative gene expression level with respect to ACTB in 2^−Λ Ct, OCT4” value (“Relative gene expression level … OCT4” for short) [1, 3] was 2.27 × 10^−1 and the “Relative gene expression level with respect to ACTB in 2^−Λ Ct, SOX2” value (“Relative gene expression level … SOX2” below) [1, 3] was 2.44 × 10^−2. For the same molecule, the “Relative gene expression level … Nanog” value [1, 4] was 2.91 × 10^−2, the “Relative gene expression level … OCT4” value [1, 4] was 2.63 × 10^−1 and the “Relative gene expression level … SOX2” value [1, 4] was 2.75 × 10^−2. For the same molecule, the “Relative gene expression level … Nanog” value [1, 5] was 2.82 × 10^−2, the “Relative gene expression level … OCT4” value [1, 5] was 2.50 × 10^−1 and the “Relative gene expression level … SOX2” value [1, 5] was 2.57 × 10^−2. For the same molecule, the “Relative gene expression level … Nanog” value [1, 6] was 2.96 × 10^−2, the “Relative gene expression level … OCT4” value [1, 6] was 2.56 × 10^−1 and the “Relative gene expression level … SOX2” value [1, 6] was 2.55 × 10^−2. The “Relative gene expression level with respect to ACTB in 2^−Λ Ct, Brachyury” value [1, 7] was 3.14 × 10^−4, the “Relative gene expression level … Nanog” value [1, 7] was 6.13 × 10^−2 and the “Relative gene expression level … OCT4” value [1, 7] was 3.60 × 10^−1. For the same molecule, the “Relative gene expression level … SOX2” value [1, 7] was 2.08 × 10^−2, the “Relative gene expression level with respect to ACTB in 2^−Λ Ct, SOX17” value [1, 7] was 4.03 × 10^−5 and the “Relative gene expression level … Nanog” value [2, 8] was 5.06 × 10^−2. The “Relative gene expression level … OCT4” value [2, 8] was 4.06 × 10^−1, the “Relative gene expression level … SOX2” value [2, 8] was 2.64 × 10^−2 and the “Relative gene expression level … Nanog” value [2, 9] was 5.30 × 10^−2. For the same molecule, the “Relative gene expression level … OCT4” value [2, 9] was 4.44 × 10^−1, the “Relative gene expression level … SOX2” value [2, 9] was 2.77 × 10^−2 and the “Relative gene expression level … Nanog” value [2, 10] was 4.88 × 10^−2. The “Relative gene expression level … OCT4” value [2, 10] was 3.87 × 10^−1, the “Relative gene expression level … SOX2” value [2, 10] was 2.89 × 10^−2 and the “Relative gene expression level … Nanog” value [2, 11] was 5.53 × 10^−2. The “Relative gene expression level … OCT4” value [2, 11] was 4.42 × 10^−1, the “Relative gene expression level … SOX2” value [2, 11] was 2.77 × 10^−2 and the “Relative gene expression level with respect to ACTB in 2^−Λ Ct, Brachyury” value [2, 12] was 3.07 × 10^−4. The “Relative gene expression level … Nanog” value [2, 12] was 6.65 × 10^−2, the “Relative gene expression level … OCT4” value [2, 12] was 4.56 × 10^−1 and the “Relative gene expression level … SOX2” value [2, 12] was 1.66 × 10^−2. For the same molecule, the “Relative gene expression level with respect to ACTB in 2^−Λ Ct, SOX17” value [2, 12] was 1.11 × 10^−3, the “Amount of WNT3A protein contained in unit of medium in contact with unit area of cell surface at which expression of the differentiation marker gene was detected” value [2, 13] was ≥ 5.2×10^4 μg/mL·cm^2 and the “Amount of WNT3A protein contained in unit of medium in contact with unit area of cell surface at which expression of the differentiation marker gene was not detected” value [2, 13] was ≤ 6.7×10^3 μg/mL·cm^2.
